Measured values from the supplement of paper PMC7877785.
± gives the uncertainty stated by the source.

Assay: self-splicing fitness, log relative to wild type (ln ratio); higher = more splicing; Tetrahymena group I intron in knt gene, E. coli kanamycin selection, DiMSum; sequences stand for … in CUCUCU…GGAGGGAAAAGUUAUCAGGCAUGCACCUGGUAGCUAGUCUUUAAACCAAUAGAUUGCAUCGGUUUAAAAGGCAAGACCGUCAAAUUGCGGGAAAGGGGUCAACAGCCGUUCAGUACCAAGUCUCAGGGGAAACUUUGAGAUGGCCUUGCAAAGGGUAUGGUAAUAAGCUGACGGACAUGGUCCUAACCACGCAGCCAAGUCCUAAGUCAACAGAUCUUCUGUUGAUAUGGAUGCAGUUCACAGACUAAAUGUCGGUCGGGGAAGAUGUAUUCUUCUCAUAAGAUAUAGUCGGACCUCUCCUUAAUGGGAGCUAGCGGAUGAAGUGAUGCAACACUGGAGCCGCUGGGAACUAAUUUGUAUGCGAAAGUAUAUUGAUUAGUUUUGGAGUACUCGUGGUCG
In short: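 Library with all eight P1ex-region intron nucleotides randomised, intron inside the knt kanamycin-resistance gene on pET-22b(+), in E. coli BL21(DE3). Cells grew overnight at 37°C or 30°C on LB agar with or without 25 μg/mL kanamycin (plus 100 μg/mL carbenicillin, 50 μM IPTG, 0.2% rhamnose), in six replicate transformations. Pooled colonies were amplicon-sequenced on Illumina HiSeq 2500. DiMSum fitness is the error-weighted combination of wild-type-normalised replicate fold changes, kanamycin versus none.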

Sequence	self-splicing fitness (ln) (30 °C)	self-splicing fitness (ln) (37 °C)
AUGAAGCAAUAUUACGAAUA	-1.17 ± 0.11	-0.537 ± 0.17
UCGCAGCAAUAUUACGAGGU	-3.14 ± 0.25	-2.85 ± 0.19
CAUGAGCAAUAUUACGGCGG	-0.18 ± 0.094	-0.278 ± 0.14
AUGAAGCAAUAUUACGUGUC	-2.97 ± 0.28	-2.26 ± 0.34
AUAUAGCAAUAUUACGCGAC	-2.73 ± 0.22	-2.32 ± 0.21
GGCCAGCAAUAUUACGUAAG	-1.3 ± 0.084	-1.25 ± 0.15
UUAAAGCAAUAUUACGCGAU	-3.01 ± 0.24	-0.953 ± 0.17
AGCUAGCAAUAUUACGUUAC	-3.52 ± 0.27	-1.87 ± 0.18
CACAAGCAAUAUUACGCCGC	-2.66 ± 0.28	-2.34 ± 0.37
CGAAAGCAAUAUUACGGACU	-0.69 ± 0.053	0.357 ± 0.079
AAUUAGCAAUAUUACGAAGA	-1.25 ± 0.17	-0.985 ± 0.16
UAGCAGCAAUAUUACGCACG	-0.945 ± 0.13	-0.318 ± 0.14
UUAAAGCAAUAUUACGUACU	-0.208 ± 0.079	-0.142 ± 0.099
UCGAAGCAAUAUUACGUUGU	-2.09 ± 0.19	-2.33 ± 0.2
AAUAAGCAAUAUUACGAACU	-0.169 ± 0.11	0.509 ± 0.14
GAAAAGCAAUAUUACGGUUC	-3.18 ± 0.11	-2.88 ± 0.16
AUGGAGCAAUAUUACGGCGG	-3.85 ± 0.37	-1.82 ± 0.34
AUUGAGCAAUAUUACGUGUA	-3.52 ± 0.21	-2.69 ± 0.24
CGGGAGCAAUAUUACGCACG	-1.33 ± 0.31	

Sequence	self-splicing fitness (ln) (30 °C)	self-splicing fitness (ln) (37 °C)
GAUUAGCAAUAUUACGUACA	-1.89 ± 0.24	-0.352 ± 0.15
ACCGAGCAAUAUUACGCCUG	-3.61 ± 0.24	-2.44 ± 0.17
CACCAGCAAUAUUACGGCGG	-0.993 ± 0.065	-0.567 ± 0.079
CGUCAGCAAUAUUACGUCAU	-3.73 ± 0.19	-2.59 ± 0.16
AGAUAGCAAUAUUACGCUUC	-2.66 ± 0.42	-2.27 ± 0.49
UGACAGCAAUAUUACGUUUU	-2.76 ± 0.11	-1.43 ± 0.098
ACUAAGCAAUAUUACGCAUU	-1.82 ± 0.11	-0.321 ± 0.12
GAUGAGCAAUAUUACGCGAU	-3.05 ± 0.34	-1.57 ± 0.21
CGACAGCAAUAUUACGAUUG	-0.746 ± 0.07	-0.877 ± 0.091
CUAAAGCAAUAUUACGAUGC	-3.96 ± 0.3	-3.1 ± 0.33
GCCUAGCAAUAUUACGUUUU	-1.7 ± 0.097	-0.614 ± 0.12
UUCUAGCAAUAUUACGUUGA	-3.03 ± 0.22	-1.47 ± 0.18
GGUAAGCAAUAUUACGUACG	-0.395 ± 0.11	-0.415 ± 0.12
GCCGAGCAAUAUUACGUGCG	-2.17 ± 0.11	-1.28 ± 0.098
CGGCAGCAAUAUUACGUGAU	-3.11 ± 0.12	-1.57 ± 0.13
AUGUAGCAAUAUUACGCACA	-0.084 ± 0.13	0.428 ± 0.17
GAUGAGCAAUAUUACGGAAC		0.0424 ± 0.44
GCGAAGCAAUAUUACGCAUA	-1.92 ± 0.2	-1.76 ± 0.16
GAAGAGCAAUAUUACGGGUA	-2.6 ± 0.19	-1.89 ± 0.15
